Results: patent US20240016949A1 (SHANGHAI FUDAN ZHANGJIANG BIO PHARMACEUTICAL, published 2024)
Numbering of substitutions follows the chain as printed.

Target: T1, FcγRIIa (CD32a) (UniProt P12318 34-317, limits assumed)
T1 sequence (looked up): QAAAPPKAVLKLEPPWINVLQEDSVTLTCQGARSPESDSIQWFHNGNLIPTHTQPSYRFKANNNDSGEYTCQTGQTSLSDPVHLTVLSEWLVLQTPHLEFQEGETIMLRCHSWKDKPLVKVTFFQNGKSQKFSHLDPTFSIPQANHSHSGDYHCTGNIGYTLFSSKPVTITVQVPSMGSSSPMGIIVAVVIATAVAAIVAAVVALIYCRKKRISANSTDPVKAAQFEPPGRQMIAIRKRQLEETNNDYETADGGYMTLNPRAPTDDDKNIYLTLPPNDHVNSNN
Experiment: cell-based or functional assay

B1: antibody-drug conjugate FDA028-LE14 (antibody, human IgG1, kappa)
light: not shown
heavy: QVQLQQWGAGLLKPSETLSLTCAVYGGSFSGYYWSWIRQPPGKGLEWIGEINHSGSTNYNPSLKSRVTISVETSKNQFSLKLSSVTAADTAVYYCARDKWTWYFDLWGRGTLVTVSSASTKGPSVFPLAPSSKSTSGGTAALGCLVKDYFPEPVTVSWNSGALTSGVHTFPAVLQSSGLYSLSSVVTVPSSSLGTQTYICNVNHKPSNTKVDKKVEPKSCDKTHTCPPCPAPPVAGGPSVFLFPPKPKDTLMISRTPEVTCVVVDVSHEDPEVKFNWYVDGVEVHNAKTKPREEQYNSTYRVVSVLTVLHQDWLNGKEYKCKVSNKALPAPIEKTISKAKGQPREPQVYTLPPSREEMTKNQVSLTCLVKGFYPSDIAVEWESNGQPENNYKTTPPVLDSDGSFFLYSKLTVDKSRWQQGNVFSCSVMHEALHNHYTQKSLSLSPGK
modifications: LE14 linker-drug as thioether on cysteines of reduced interchain disulfides; DAR 7.63 for the whole antibody
IC50 value (nM), killing activity on HSC Cell: 334 nM | IC50 value (nM), killing activity on K562 Cell: 270 nM

B2: antibody-drug conjugate FDA029-LE14 (antibody, human IgG1, kappa)
light: not shown
heavy: B1 heavy with P233E, V234F, A235E, P331S
modifications: LE14 linker-drug as thioether on cysteines of reduced interchain disulfides; DAR 7.82 for the whole antibody
IC50 value (nM), killing activity on HSC Cell: 363 nM | IC50 value (nM), killing activity on K562 Cell: 323 nM
